The target in test [1] is IL-22 receptors on COLO205 cells (UniProt Q8N6P7).
For test [2] the target is unchanged. This is another data set of the same source.

Data on 1 substance can be found in patent US20230069996A1.

IL-22 receptors on COLO205 cells, sequence (Q8N6P7 16-574 limits assumed, chain 1 of 2): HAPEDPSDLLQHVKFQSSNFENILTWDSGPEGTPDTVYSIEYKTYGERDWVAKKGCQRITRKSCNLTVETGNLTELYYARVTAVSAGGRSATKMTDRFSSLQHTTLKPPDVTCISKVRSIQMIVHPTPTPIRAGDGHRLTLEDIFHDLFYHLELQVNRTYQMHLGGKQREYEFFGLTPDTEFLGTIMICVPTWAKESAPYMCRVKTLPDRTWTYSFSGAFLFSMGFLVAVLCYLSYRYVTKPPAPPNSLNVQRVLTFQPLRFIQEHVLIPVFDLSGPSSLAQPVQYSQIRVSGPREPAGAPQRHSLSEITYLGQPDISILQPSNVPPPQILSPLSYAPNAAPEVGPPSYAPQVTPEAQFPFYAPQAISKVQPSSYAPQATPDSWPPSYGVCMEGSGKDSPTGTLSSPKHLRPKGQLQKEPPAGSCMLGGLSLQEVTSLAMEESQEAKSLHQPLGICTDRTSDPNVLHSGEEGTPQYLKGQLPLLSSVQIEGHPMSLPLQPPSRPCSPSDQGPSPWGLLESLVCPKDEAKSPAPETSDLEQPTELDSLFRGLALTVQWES
IL-22 receptors on COLO205 cells, sequence (Q08334 20-325 limits assumed, chain 2 of 2, further chain): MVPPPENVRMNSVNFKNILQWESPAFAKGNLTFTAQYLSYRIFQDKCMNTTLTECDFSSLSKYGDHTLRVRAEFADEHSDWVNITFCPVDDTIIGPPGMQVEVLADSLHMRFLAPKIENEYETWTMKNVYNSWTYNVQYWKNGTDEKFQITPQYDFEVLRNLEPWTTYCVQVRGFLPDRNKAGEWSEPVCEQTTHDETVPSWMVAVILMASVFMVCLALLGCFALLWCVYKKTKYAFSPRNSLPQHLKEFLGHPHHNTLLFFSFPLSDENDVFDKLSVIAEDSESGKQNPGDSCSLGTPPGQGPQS

With “human IL-22 (from UniProt Q9GZX6) (ligand)”, the EC50 (read off the curve) of IL-10 secretion by COLO205 cells, human IL-22 incubated with uPA in test [1] was determined as 50 pM. In test [2], this substance came in with an EC50 (read off the curve) of IL-10 secretion by COLO205 cells, human IL-22 without uPA of 80 pM.
